Publication PMC6134688, “Identification of a novel site of interaction between ataxin-3 and the amyloid aggregation inhibitor polyglutamine binding peptide 1” (European Journal of Mass Spectrometry (Chichester, England), 2017)
Where no end group is shown, it is not given here.

T1: MBP-183-221, maltose binding protein linked to residues 183-221 of ataxin-3 (UniProt P54252 183-221)
T1 construct: printed mass 49,207.6 Da; MBP drawn from PDB 1LLS; not shown: MBP, N-terminal, kept
T1 chain (looked up): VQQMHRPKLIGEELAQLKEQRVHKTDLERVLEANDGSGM

B1: JD+, the Josephin domain plus residues 183-221 (ataxin-3 residues 1-221) (domain or fragment, UniProt P54252 1-221, looked up)
chain: MESIFHEKQEGSLCAQHCLNNLLQGEYFSPVELSSIAHQLDEEERMRMAEGGVTSEDYRTFLQQPSGNMDDSGFFSIQVISNALKVWGLELILFNSPEYQRLRIDPINERSFICNYKEHWFTVRKLGKQWFNLNSLLTGPELISDTYLALFLAQLQQEGYSIFVVKGDLPDCEADQLLQMIRVQQMHRPKLIGEELAQLKEQRVHKTDLERVLEANDGSGM
notes: ataxin-3 residues 1-221, made by a stop codon in the gene encoding ataxin-3 14Q; printed mass 27,704.4 Da; also called ataxin-3 1-221

What was measured:
[1] = target: the molecule itself; experiment: native MS; nanoESI-MS; 10 μM protein and 50 μM QBP1 (five-fold molar excess) in 250 mM ammonium hydrogen carbonate, 1 mM dithiothreitol, pH 7.8
[2] = target: ataxin-3 78Q (UniProt P54252); experiment: as above
[3] = target: ataxin-3 14Q (UniProt P54252); experiment: as above
[4] = target: T1, MBP-183-221, maltose binding protein …; experiment: native MS; nanoESI-MS; equimolar QBP1 (for the TEV-cleaved MBP fusion the ratio is not told); settings: both partners purified
[5] = target: ataxin-3 78Q (UniProt P54252); experiment: 1H T1rho NMR (signal of the peptide); 50 μM QBP1 and 10 μM protein in 250 mM ammonium hydrogen carbonate, 10% (v/v) D2O; 100 ms spin-lock; methyl region 0.45-0.75 ppm integrated
[6] = target: ataxin-3 14Q (UniProt P54252); experiment: as above
[7] = target: ataxin-3 14Q (UniProt P54252); experiment: native MS; nanoESI-MS; 16-fold excess of QBP1 over ataxin-3 14Q (Supplementary Figure 1)
[8] = target: B1; experiment: native MS; nanoESI-MS; 10 μM protein and 50 μM QBP1 (five-fold molar excess) in 250 mM ammonium hydrogen carbonate, 1 mM dithiothreitol, pH 7.8; settings: both partners purified
[9] = target: T2, JDU1, the Josephin domain plus the first UIM (ataxin-3 residues 1-241) (UniProt P54252 1-241); experiment: as above; settings: both partners purified
T2 construct: ataxin-3 residues 1-241, made by a stop codon in the gene encoding ataxin-3 14Q; printed mass 30,046.7 Da

Binder	stoichiometry N [1]	stoichiometry N [2]	stoichiometry N [3]	stoichiometry N [4]	loss of QBP1 signal in T1rho NMR [5]	loss of QBP1 signal in T1rho NMR [6]	stoichiometry N [7]	stoichiometry N [8]	stoichiometry N [9]
B1	2	–	–	–	–	–	–	–	–
Ac-SNWKWWPGIFD (printed mass 1477.6 Da; also called QBP1; source: synthetic peptide, bought: Bio-Synthesis Inc) [polyQ binding peptide 1]	–	1	1	1	24%	22%	1	1	1
